# Reference: the supplement of paper PMC9112550, “Optimization of the antimicrobial peptide Bac7 by deep mutational scanning” (BMC Biology, 2022)
# Test system: Escherichia coli TOP10
# Test: shrunken log2 fold change of peptide-encoding DNA abundance (4.5 h post-induction vs induction); higher = less antimicrobial activity (less host growth inhibition)
# Conditions: time post-induction: 4.5 h; library: site-saturation at positions 5, 18, 19, 20
# 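Note: peptides expressed intracellularly from a pBAD plasmid library in pooled LB shake-flask culture, induced with 0.3% L-arabinose, DNA abundance read by NGS, three biological replicates, DESeq2 with apeglm shrinkage.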
row,Sequence,shrunken log2 fold change
1,RRIRNRPPRLPRPRPRPGGNPRP,-0.0331
2,RRIRNRPPRLPRPRPRPGHSPRP,-0.152
3,RRIRNRPPRLPRPRPRPGIAPRP,0.0989
4,RRIRNRPPRLPRPRPRPGIDPRP,-0.042
5,RRIRNRPPRLPRPRPRPGIIPRP,-0.00401
6,RRIRNRPPRLPRPRPRPGIVPRP,0.367
7,RRIRNRPPRLPRPRPRPGIWPRP,0.0115
8,RRIRNRPPRLPRPRPRPGKPPRP,-0.117
9,RRIRNRPPRLPRPRPRPGMRPRP,0.504
10,RRIRNRPPRLPRPRPRPGMTPRP,-0.257
11,RRIRNRPPRLPRPRPRPGQSPRP,0.108
12,RRIRNRPPRLPRPRPRPGRLPRP,-0.0294
13,RRIRNRPPRLPRPRPRPGRYPRP,0.00112
14,RRIRNRPPRLPRPRPRPGVHPRP,0.25
15,RRIRNRPPRLPRPRPRPGVKPRP,-0.117
16,RRIRNRPPRLPRPRPRPGWFPRP,-0.00934
17,RRIRNRPPRLPRPRPRPGWIPRP,-0.265
18,RRIRNRPPRLPRPRPRPGYGPRP,-0.0142
19,RRIRNRPPRLPRPRPRPGYIPRP,-1.11
20,RRIRNRPPRLPRPRPRPHDDPRP,0.008
21,RRIRNRPPRLPRPRPRPHEFPRP,-0.13
22,RRIRNRPPRLPRPRPRPHFLPRP,-0.217
23,RRIRNRPPRLPRPRPRPHFPPRP,-0.186
24,RRIRNRPPRLPRPRPRPHHTPRP,-0.459
25,RRIRNRPPRLPRPRPRPHILPRP,-0.106

row,Sequence,shrunken log2 fold change
1,RRIRNRPPRLPRPRPRPHIYPRP,-0.0215
2,RRIRNRPPRLPRPRPRPHKHPRP,-0.719
3,RRIRNRPPRLPRPRPRPHKYPRP,-1.52
4,RRIRNRPPRLPRPRPRPHLGPRP,-0.317
5,RRIRNRPPRLPRPRPRPHMAPRP,-0.401
6,RRIRNRPPRLPRPRPRPHMDPRP,-0.384
7,RRIRNRPPRLPRPRPRPHMYPRP,0.0526
8,RRIRNRPPRLPRPRPRPHPAPRP,0.116
9,RRIRNRPPRLPRPRPRPHPQPRP,-0.106
10,RRIRNRPPRLPRPRPRPHQIPRP,-0.247
11,RRIRNRPPRLPRPRPRPHRSPRP,0.283
12,RRIRNRPPRLPRPRPRPHSQPRP,-0.392
13,RRIRNRPPRLPRPRPRPHSVPRP,-0.015
14,RRIRNRPPRLPRPRPRPHSWPRP,0.00366
15,RRIRNRPPRLPRPRPRPHTEPRP,0.0434
16,RRIRNRPPRLPRPRPRPHTFPRP,-0.0139
17,RRIRNRPPRLPRPRPRPHTHPRP,-0.438
18,RRIRNRPPRLPRPRPRPHVMPRP,-0.503
19,RRIRNRPPRLPRPRPRPIASPRP,0.0215
20,RRIRNRPPRLPRPRPRPIAVPRP,-0.0167
21,RRIRNRPPRLPRPRPRPICAPRP,0.0914
22,RRIRNRPPRLPRPRPRPICSPRP,-0.0669
23,RRIRNRPPRLPRPRPRPIDAPRP,0.0153
24,RRIRNRPPRLPRPRPRPIEVPRP,0.0112
25,RRIRNRPPRLPRPRPRPIGMPRP,-0.0748

row,Sequence,shrunken log2 fold change
1,RRIRNRPPRLPRPRPRPIHLPRP,-0.73
2,RRIRNRPPRLPRPRPRPIHVPRP,-0.224
3,RRIRNRPPRLPRPRPRPIIHPRP,-0.712
4,RRIRNRPPRLPRPRPRPIIPPRP,-0.0623
5,RRIRNRPPRLPRPRPRPIKGPRP,-0.104
6,RRIRNRPPRLPRPRPRPILLPRP,-0.103
7,RRIRNRPPRLPRPRPRPILYPRP,-0.267
8,RRIRNRPPRLPRPRPRPINAPRP,-0.00965
9,RRIRNRPPRLPRPRPRPINEPRP,-0.056
10,RRIRNRPPRLPRPRPRPIQAPRP,-0.0922
11,RRIRNRPPRLPRPRPRPIRDPRP,0.201
12,RRIRNRPPRLPRPRPRPIRKPRP,-0.0111
13,RRIRNRPPRLPRPRPRPITCPRP,-0.166
14,RRIRNRPPRLPRPRPRPIVDPRP,-0.139
15,RRIRNRPPRLPRPRPRPIVGPRP,0.003
16,RRIRNRPPRLPRPRPRPIWWPRP,-0.141
17,RRIRNRPPRLPRPRPRPIYEPRP,-0.232
18,RRIRNRPPRLPRPRPRPIYIPRP,0.0152
19,RRIRNRPPRLPRPRPRPIYKPRP,-0.414
20,RRIRNRPPRLPRPRPRPKACPRP,-0.00921
21,RRIRNRPPRLPRPRPRPKCMPRP,-0.0394
22,RRIRNRPPRLPRPRPRPKCSPRP,0.0607
23,RRIRNRPPRLPRPRPRPKDTPRP,-0.018
24,RRIRNRPPRLPRPRPRPKESPRP,0.149
25,RRIRNRPPRLPRPRPRPKFDPRP,-0.235

row,Sequence,shrunken log2 fold change
1,RRIRNRPPRLPRPRPRPKFQPRP,-0.505
2,RRIRNRPPRLPRPRPRPKGIPRP,0.0346
3,RRIRNRPPRLPRPRPRPKGKPRP,0.0351
4,RRIRNRPPRLPRPRPRPKGLPRP,-0.00227
5,RRIRNRPPRLPRPRPRPKGYPRP,-0.0233
6,RRIRNRPPRLPRPRPRPKHNPRP,-0.434
7,RRIRNRPPRLPRPRPRPKHWPRP,0.0916
8,RRIRNRPPRLPRPRPRPKIQPRP,-0.367
9,RRIRNRPPRLPRPRPRPKKAPRP,-0.0485
10,RRIRNRPPRLPRPRPRPKKGPRP,0.0558
11,RRIRNRPPRLPRPRPRPKKWPRP,-0.00407
12,RRIRNRPPRLPRPRPRPKMLPRP,-0.043
13,RRIRNRPPRLPRPRPRPKNGPRP,0.96
14,RRIRNRPPRLPRPRPRPKNSPRP,-0.161
15,RRIRNRPPRLPRPRPRPKPVPRP,0.24
16,RRIRNRPPRLPRPRPRPKQWPRP,0.217
17,RRIRNRPPRLPRPRPRPKQYPRP,-0.426
18,RRIRNRPPRLPRPRPRPKRYPRP,0.0391
19,RRIRNRPPRLPRPRPRPKSKPRP,0.0844
20,RRIRNRPPRLPRPRPRPKSLPRP,-0.433
21,RRIRNRPPRLPRPRPRPKTLPRP,-0.134
22,RRIRNRPPRLPRPRPRPKTYPRP,-1.23
23,RRIRNRPPRLPRPRPRPKVQPRP,0.341
24,RRIRNRPPRLPRPRPRPKVTPRP,-0.0149
25,RRIRNRPPRLPRPRPRPKYNPRP,-0.901

row,Sequence,shrunken log2 fold change
1,RRIRNRPPRLPRPRPRPLAPPRP,0.262
2,RRIRNRPPRLPRPRPRPLAQPRP,0.0157
3,RRIRNRPPRLPRPRPRPLASPRP,-0.196
4,RRIRNRPPRLPRPRPRPLAWPRP,0.00628
5,RRIRNRPPRLPRPRPRPLAYPRP,-0.175
6,RRIRNRPPRLPRPRPRPLCDPRP,0.0696
7,RRIRNRPPRLPRPRPRPLFTPRP,-0.0916
8,RRIRNRPPRLPRPRPRPLGGPRP,0.105
9,RRIRNRPPRLPRPRPRPLGQPRP,0.0394
10,RRIRNRPPRLPRPRPRPLHAPRP,-0.0128
11,RRIRNRPPRLPRPRPRPLHWPRP,-0.273
12,RRIRNRPPRLPRPRPRPLIGPRP,-0.0791
13,RRIRNRPPRLPRPRPRPLIRPRP,-0.0892
14,RRIRNRPPRLPRPRPRPLKPPRP,0.203
15,RRIRNRPPRLPRPRPRPLLKPRP,-0.539
16,RRIRNRPPRLPRPRPRPLLPPRP,0.0144
17,RRIRNRPPRLPRPRPRPLMKPRP,-0.431
18,RRIRNRPPRLPRPRPRPLMTPRP,0.0149
19,RRIRNRPPRLPRPRPRPLNPPRP,-0.133
20,RRIRNRPPRLPRPRPRPLPWPRP,0.00924
21,RRIRNRPPRLPRPRPRPLQWPRP,0.0683
22,RRIRNRPPRLPRPRPRPLSEPRP,0.0166
23,RRIRNRPPRLPRPRPRPLSFPRP,-0.387
24,RRIRNRPPRLPRPRPRPLSGPRP,0.0992
25,RRIRNRPPRLPRPRPRPLSTPRP,0.0462

row,Sequence,shrunken log2 fold change
1,RRIRNRPPRLPRPRPRPLTLPRP,-0.358
2,RRIRNRPPRLPRPRPRPLTNPRP,0.00172
3,RRIRNRPPRLPRPRPRPLVFPRP,-0.147
4,RRIRNRPPRLPRPRPRPLWQPRP,-0.303
5,RRIRNRPPRLPRPRPRPLWRPRP,0.179
6,RRIRNRPPRLPRPRPRPLWTPRP,-0.247
7,RRIRNRPPRLPRPRPRPMADPRP,0.0252
8,RRIRNRPPRLPRPRPRPMAIPRP,-0.00192
9,RRIRNRPPRLPRPRPRPMCEPRP,-0.0162
10,RRIRNRPPRLPRPRPRPMEAPRP,0.0369
11,RRIRNRPPRLPRPRPRPMGCPRP,-0.187
12,RRIRNRPPRLPRPRPRPMHFPRP,-0.145
13,RRIRNRPPRLPRPRPRPMHTPRP,0.0242
14,RRIRNRPPRLPRPRPRPMIMPRP,-1.96
15,RRIRNRPPRLPRPRPRPMIQPRP,-0.715
16,RRIRNRPPRLPRPRPRPMKIPRP,-0.121
17,RRIRNRPPRLPRPRPRPMLPPRP,0.00241
18,RRIRNRPPRLPRPRPRPMLWPRP,0.0244
19,RRIRNRPPRLPRPRPRPMMTPRP,-0.312
20,RRIRNRPPRLPRPRPRPMNHPRP,0.0515
21,RRIRNRPPRLPRPRPRPMNIPRP,-0.24
22,RRIRNRPPRLPRPRPRPMTIPRP,-0.35
23,RRIRNRPPRLPRPRPRPMVFPRP,-0.000155
24,RRIRNRPPRLPRPRPRPMVVPRP,0.00587
25,RRIRNRPPRLPRPRPRPMWRPRP,-0.0211
